For this test, the target named is T1, DIP-β-G, recombinant protein for SPR (Drosophila melanogaster).
T1 chain: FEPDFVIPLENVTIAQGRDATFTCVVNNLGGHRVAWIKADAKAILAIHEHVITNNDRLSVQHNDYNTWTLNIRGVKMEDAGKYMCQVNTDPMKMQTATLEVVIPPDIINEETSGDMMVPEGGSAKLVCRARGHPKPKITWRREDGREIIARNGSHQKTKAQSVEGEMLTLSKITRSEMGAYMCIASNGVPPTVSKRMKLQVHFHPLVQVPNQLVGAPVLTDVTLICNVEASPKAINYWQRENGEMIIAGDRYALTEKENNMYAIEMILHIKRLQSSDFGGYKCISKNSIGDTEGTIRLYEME
Description: SPR. On the technique in general: SPR reads the build-up and loss of mass on a sensor chip optically.

Broadly, the Kd is a measure of binding affinity in units of concentration.

B1: Dpr10-A, recombinant protein for SPR (domain or fragment, Drosophila melanogaster)
chain: WNEPYFDLTMPRNITSLVGKSAYLGCRVKHLGNKTVAWIRHRDLHILTVGTYTYTTDQRFQTSYHRDIDEWTLQIKWAQQRDAGVYECQISTQPVRSYSVNLNIVDLIDAETSDIMQQYYNDDAFYIAENRVYQSSNDEFAGMFGPIQTVAVPTATILGGPDLYVDKGSTINLTCIIKFSPEPPTHIFWYHQDKVLSEETSGGRLKFKTIKSEETKSILLIYDADLLHSGKYSCYPSNTEIASIRVHVLQGE
Consider B1, for which the Kd amounted to 5.76 µM.

The values are drawn from doi:10.1101/2024.03.04.583391 (bioRxiv, 2024).
